Literature values, collected in article PMC10673186.

Target: SIRPα (Homo sapiens) (UniProt P78324)
UniProt P78324, sequence (P78324 31-373): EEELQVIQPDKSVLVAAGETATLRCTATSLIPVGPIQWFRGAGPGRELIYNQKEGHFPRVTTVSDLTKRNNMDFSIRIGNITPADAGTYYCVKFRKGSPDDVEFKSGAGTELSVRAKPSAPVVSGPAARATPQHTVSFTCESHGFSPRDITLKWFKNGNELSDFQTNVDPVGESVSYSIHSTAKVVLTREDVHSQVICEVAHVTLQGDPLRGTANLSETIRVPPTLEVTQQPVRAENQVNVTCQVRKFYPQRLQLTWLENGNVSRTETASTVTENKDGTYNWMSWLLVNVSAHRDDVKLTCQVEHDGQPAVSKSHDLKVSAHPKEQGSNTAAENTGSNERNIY

Kd: 1 µM
Substance: CD47 (from UniProt Q08722)
